Experimental data: publication PMC11036078, “PD‐1 inhibition with retifanlimab and/or arginase inhibition with INCB001158 in Japanese patients with solid tumors: A phase I study” (Cancer Medicine, 2024)
Several values for one entry are separate records, joined by “and”; a condition that tells them apart may be missing. Identical values can stand only once. Entries after “also recorded” stand apart in the source; their conditions may differ. Like-named read-outs stand apart in the source and are kept apart here.

Columns and labels:
[1] = Western patients; ref POD1UM‐101 (NCT03059823); cited from earlier work
[2] = Safety and tolerability (TEAEs, DLTs, irAEs; NCI CTCAE v5.0), phase Ib POD1UM-104; conditions: in vivo
Protocol: This was a phase Ib, open‐label, multicenter study (POD1UM‐104 [NCT03910530]). The study was conducted in 2 parts. In Part 1, patients received single‐agent retifanlimab or escalating doses of single‐agent INCB001158 to confirm the RP2D of each agent. Single‐agent dosing was performed to comply with local regulations. In Part 2, patients received the combination of retifanlimab and INCB001158 at their respective RP2D determined in Part 1, to further explore safety and preliminary evidence of clinical activity. Treatment cycles in Part 1 and Part 2 were 28 days, and patients could receive treatment for up to 2 years, or until disease progression, unacceptable toxicity, death, or patient withdrawal.
In Part 1, 6 patients received retifanlimab 500 mg every 4 weeks (Q4W), given as an i.v. infusion over 60 min; this dose was based on the RP2D determined from global studies. The starting dose of INCB001158 was 75 mg taken orally twice daily (BID). Dose escalation of INCB001158 followed a standard 3 + 3 design; if 75 mg BID was deemed to be tolerable in at least 3 patients, a 100‐mg BID dose level cohort comprising at least 3 patients would be opened.
DLTs were assessed by the investigator according to the National Cancer Institute (NCI) Common Terminology Criteria for Adverse Events (CTCAE) v5.0 criteria (Table S1).
The primary endpoints of the study were safety, tolerability, DLTs, and RP2D of single‐agent retifanlimab, INCB001158, and the combination. Adverse events (AEs) were graded by NCI CTCAE v5.0, and immune‐related adverse events (irAEs) were monitored as AEs of special interest. Physical examinations, monitoring of vital signs, electrocardiograms, and laboratory assessments were conducted throughout the study.
(§1) Safety and efficacy analyses were conducted in the full analysis set, which comprised all enrolled patients who received at least 1 dose of the study drug.
(§2) Safety data were summarized using descriptive statistics. PK parameters were summarized by study part, treatment regimen, cohort, dose levels, and/or visit. ORR and DCR were reported with their exact 95% confidence intervals (CIs); DOR was based on the Kaplan–Meier estimate of the distribution function, and the estimated median along with 95% CI was reported. Statistical analyses were performed using SAS® software v9.4 or later (SAS Institute Inc., Cary, NC, USA).

advanced solid tumors [3] = conditions: cited from earlier work
advanced solid tumors [4] = test: Clinical activity by investigator per RECIST v1.1 (ORR, DCR, DOR); type: in vivo, Japanese patients
Protocol: Preliminary clinical activity of single‐agent retifanlimab and INCB001158, and the combination, was an additional secondary endpoint. Diagnostic imaging was performed by computed tomography scan every 8 ± 1 weeks. Clinical activity was assessed by measuring overall response rate (ORR), defined as the percentage of patients experiencing a complete or partial response (CR or PR) as determined by the investigator according to Response Evaluation Criteria in Solid Tumors (RECIST) v1.1; disease control rate (DCR), defined as the percentage of patients maintaining either an objective response or stable disease (SD) for at least 12 weeks per RECIST v1.1; and duration of response (DOR), defined as the time from first observed response until onset of progressive disease (PD) as determined by the investigator according to RECIST v1.1 or death from any cause.
as §1, §2

[5] = test system: ADAs against retifanlimab; test: Anti-drug antibodies against retifanlimab (bridging immunoassay); conditions: samples from 12 Japanese patients
Protocol: (§3) Pharmacokinetics of single‐agent retifanlimab and INCB001158, and the combination, were secondary endpoints of the study. The detection of anti‐drug antibodies (ADAs) was an exploratory endpoint. Blood samples for retifanlimab PK assessments were taken on days 1 (−2 h pre‐dose, end of infusion, and 6 h post‐dose), 2, 8, and 15 (no specified time) of cycle 1, day 1 of cycles 2–8 (−2 h pre‐dose, and end of infusion on cycles 2 and 6 only), and day 1 of every 4 cycles after cycle 8 (−2 h pre‐dose). Samples for ADA assessment were collected at the same time as for PK analysis, and an additional sample was collected at safety follow‐up on day 15 (no specified time). Blood samples for INCB001158 were collected pre‐dose, 0.5, 1, 2, 4, 6, and 8 h post‐dose on days 1 and 15 of cycle 1, 12 h post‐dose on day 1 of cycle 1, and pre‐dose on days 2 and 8 for cycle 1, and day 1 of cycle 2. Serum concentrations of retifanlimab were determined using an electrochemiluminescence immunoassay method, and plasma concentrations of INCB001158 were measured using a validated liquid chromatography with tandem mass spectrometry assay (Incyte Corporation, Wilmington, DE, USA). ADAs against retifanlimab were monitored using a bridging immunoassay (Incyte Corporation).

[6] = Retifanlimab serum pharmacokinetics (electrochemiluminescence immunoassay, noncompartmental analysis); type: in vivo, Japanese patients; conditions: for Retifanlimab tmax: median (min, max)
Protocol: as §3
Pharmacokinetics parameters were derived from concentrations versus time data using model‐independent noncompartmental analysis methods (WinNonlin v8.2, Certara USA Inc., Princeton, NJ, USA), and included maximum observed serum or plasma concentration (C max), serum or plasma concentration observed at the end of the dosing interval (C tau), time to maximum observed serum or plasma concentration (t max), area under the serum or plasma concentration–time curve (AUC) from time 0 to the end of the dosing interval (AUCtau), AUC from time 0 to infinity (AUC0‐∞), apparent terminal‐phase disposition half‐life, clearance, and volume of distribution. […]

[7] = RECIST v1.1, investigator, n = 6 per group
[8] = RECIST v1.1, investigator, n = 6 per group, listed as retifanlimab
[9] = first dose, in combination with INCB001158, n = 3
[10] = first dose, monotherapy 500 mg Q4W, n = 6
[11] = first dose, POD1UM-104 vs POD1UM‐101

Substance: Retifanlimab: humanized, hinge‐stabilized immunoglobulin G4κ monoclonal antibody targeting PD‐1
- Geometric mean clearance normalized for body weight [1]: 4.05 mL/day/kg
- Geometric mean volume of distribution normalized for body weight [1]: 0.0857 L/kg
- Grade 3 AEs reported but not occurring during the treatment window [2]: lymphocyte count decreased
- Retifanlimab infusion interruption because of a TEAE [2]: 1 (16.7) n (%)
- Serious TEAE after data cutoff [2]: myocarditis
- Serious TEAEs (terms) [2]: grade 3 femoral neck fracture (n = 1), grade 3 ileus and pyelonephritis (n = 1)
- TEAE: ALT increased [2]: 1 (16.7) n (%)
- TEAE: AST increased [2]: 1 (16.7) n (%)
- TEAE: Amylase increased [2]: 2 (33.3) n (%)
- TEAE: Anemia [2]: 1 (16.7) n (%)
- TEAE: Blood creatinine increased [2]: 1 (16.7) n (%)
- TEAE: Diarrhea [2]: 1 (16.7) n (%)
- TEAE: Nausea [2]: 1 (16.7) n (%)
- TEAE: Tumor pain [2]: 0 n (%)
- TRAEs reported (terms) [2]: infusion‐related reactions (n = 1), pruritus (n = 1), rash (n = 1), and 1 patient who reported multiple TRAEs, consisting of anemia worsening, fatigue, diarrhea, pruritus, rash, elevated lipase, increased alanine aminotransferase (ALT), and increased aspartate aminotransferase (AST)
- Treatment discontinuation because of a TEAE [2]: 0 n (%)
- Patients with a response (advanced solid tumors [3]; first‐in‐human study, endometrial cancer, 3 of 29 patients): 10%
- Patients with a response (advanced solid tumors [3]; first‐in‐human study, non‐small cell lung cancer, 6 of 26 patients): 23%
- Patients with SD (advanced solid tumors [3]; phase II study, SCAC): 35%
- Patients with a response (advanced solid tumors [3]; phase II study, SCAC): 14%
- Patients with an objective response (advanced solid tumors [3]; recurrent MSI‐H or dMMR endometrial cancer, 33 of 76 patients): 43%
- Median DOR (advanced solid tumors [4]; Kaplan–Meier, 95% CI, 6.8 months‐not estimable, median follow‐up 11.6 months): not estimable
- Best overall response: Complete response (advanced solid tumors [4]; [7]): 1 (16.7) n (%)
- Best overall response: Partial response (advanced solid tumors [4]; [7]): 1 (16.7) n (%)
- Best overall response: Progressive disease (advanced solid tumors [4]; [7]): 3 (50.0) n (%)
- Best overall response: Stable disease (advanced solid tumors [4]; [7]): 1 (16.7) n (%)
- Best overall response: Complete response (advanced solid tumors [4]; [8]): 1 n (%)
- Best overall response: Partial response (advanced solid tumors [4]; [8]): 1 n (%)
- Best overall response: Stable disease (advanced solid tumors [4]; [8]): 1 n (%)
- ORR (advanced solid tumors [4]; RECIST v1.1, n = 6, 95% CI, 4.3–77.7): 33.3% and 33%
- DCR (advanced solid tumors [4]; RECIST v1.1, n = 6 per group, 95% CI, 11.8–88.2): 50%
- DOR of the patient with CR (advanced solid tumors [4]; endometrial cancer, ongoing at data cutoff): 16.4 months
- DOR of the patient with PR (advanced solid tumors [4]; lung cancer): 6.8 months
- Retifanlimab ADAs detected [5]: No retifanlimab ADAs were detected; also recorded: No ADAs toward retifanlimab were observed
- Retifanlimab tmax ([6]; 500 mg Q4W i.v. monotherapy, first dose, POD1UM-104, n = 6): 1.9 (1.1, 7.1) h
- Geometric mean clearance normalized for body weight ([6]; Japanese patients [POD1UM‐104]): 3.1 mL/day/kg
- Geometric mean volume of distribution normalized for body weight ([6]; Japanese patients [POD1UM‐104]): 0.0955 L/kg
- Mean Ctau at steady state higher in Japanese than Western patients ([6]; POD1UM-104 vs POD1UM‐101): 43%
- Drug–drug interaction (retifanlimab PK, combination vs monotherapy cohorts) ([6]; combination cohort): no drug–drug interaction
- Retifanlimab tmax ([6]; first dose, 500 mg Q4W in combination with INCB001158, n = 3): 0.82 (0.78, 6.0) h
- Retifanlimab geometric mean AUCtau [6, 9]: 2280 mg·days/L
- Retifanlimab geometric mean Cmax [6, 9]: 187 µg/mL
- Retifanlimab geometric mean Ctau [6, 9]: 19.0 mg/L
- Retifanlimab median tmax [6, 9]: 0.82 h
- Retifanlimab geometric mean AUC0‐∞ [6, 10]: 2990 mg·days/L
- Retifanlimab geometric mean AUCtau [6, 10]: 1910 mg·days/L
- Retifanlimab geometric mean Cmax [6, 10]: 209 µg/mL
- Retifanlimab geometric mean Ctau at the end of the 4‐week dosing period [6, 10]: 33.9 mg/L
- Retifanlimab geometric mean clearance [6, 10]: 0.167 L/day
- Retifanlimab geometric mean half‐life [6, 10]: 509 h
- Retifanlimab half‐life, range [6, 10]: 386 to 730 h
- Retifanlimab median tmax [6, 10]: 1.9 h
- Retifanlimab volume of distribution [6, 10]: 5.12 L
- Geometric mean AUC0‐∞ higher in Japanese than Western patients [6, 11]: 66%
- Geometric mean AUCtau higher in Japanese than Western patients [6, 11]: 47%
- Geometric mean Cmax higher in Japanese than Western patients [6, 11]: 31%
- Retifanlimab trough concentrations from cycle 1 to cycle 7 ([6]; monotherapy, 3 patients with available data): generally increased
